In US20020106678A1 (published 2002):

Key:
[1] = target: T1, human G protein β2 subunit (human, UniProt P62879 1-340); experiment: tryptic proteolysis protection assay of co-translated β and γ subunits (βγ dimer formation)
Description: (§1) βγ interaction was assessed by a tryptic proteolysis assay. Plasmid DNA (1 μg) for each of the β and γ subunits were co-transcribed and co-translated in the TNT-coupled rabbit reticulocyte lysate system (Promega, Madison, Wis.). The plasmid DNA for each of the γ subunits was linearized to limit the generation of translated products of higher molecular weight. […] To increase levels of the γ₁₀ and γ₁₁ subunits 2 μg of capped RNA were added to the co-transcribed β-γ mix. Alternatively, γ₁₀ and γ₁₁ subunits that had been translated separately were added to the co-translated β-γ mix. For tryptic digestion, 5 or 10 μl aliquots of the co-translated β-γ mix were digested by addition of 1 μl trypsin (1 μg) in a final volume of 20 μl (with 50 mM Na-HEPES, pH 8.0) After incubation for 1 hour at 30° C., the digestions were stopped by addition of Laemmli sample buffer and boiling for 3 minutes. Protected fragments of β were visualized by running samples on 15% SDS-PAGE gels. After electrophoresis, gels were fixed in 40% methanol/10% acetic acid mix, soaked in ENHANCE (DuPont-NEN, Boston, Mass.), and dried. The dried gels were exposed for 8 to 48 hours at −80° C.

[2] = target: T1, human G protein β2 subunit; experiment: tryptic proteolysis protection assay of co-translated β and γ subunits (rabbit reticulocyte lysate, SDS-PAGE)
Description: as §1

T1 sequence (P62879 whole entry): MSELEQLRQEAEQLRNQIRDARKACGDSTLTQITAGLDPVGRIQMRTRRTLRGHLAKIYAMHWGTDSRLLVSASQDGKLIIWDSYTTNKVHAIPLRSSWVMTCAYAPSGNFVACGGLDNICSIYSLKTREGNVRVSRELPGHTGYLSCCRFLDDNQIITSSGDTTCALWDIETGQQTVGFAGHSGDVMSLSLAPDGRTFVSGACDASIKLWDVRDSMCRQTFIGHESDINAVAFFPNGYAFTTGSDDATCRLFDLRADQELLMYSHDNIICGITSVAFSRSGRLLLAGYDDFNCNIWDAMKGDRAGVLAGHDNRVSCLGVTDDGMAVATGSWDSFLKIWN

Binder	binding result [1]	binding result [2]
human G protein γ4 subunit (other, modified by a geranylgeranyl group (residue not stated)) MKEGMSNNSTTSISQARKAVEQLKMEACMDRVKVSQAAADLLAYCEAHVREDPLIIPVPASENPFREKKFFCTIL	binds	–
human G protein γ11 subunit (other, modified by a farnesyl group (residue not stated)) MPALHIEDLPEKEKLKMEVEQLRKEVKLQRQQVSKCSEEIKNYIEERSGEDPLVKGIPEDKNPFKEKGSCVIS	–	no binding
